The source of these data is patent US20240181074A1, “PEGYLATED T CELL ENGAGER WITH DUAL SPECIFICITIES TO CD3 AND CD19” (Shenzhen Enduring Biotech, Ltd., priority 2021, published 2024).

Data set [1] has as its system MS patients. As to conditions: at 48 weeks; cited from earlier work.
The test system of data set [2] is patients. As to conditions: human, in vivo; cited from earlier work.
Data set [3] concerns the target T1, human CD3E&CD3D protein (Homo sapiens, UniProt P07766).
T1 construct: purchased AcroBiosystems CDD-H52W0
Nature of the data set: ELISA assay, binding to human CD3E&CD3D protein. As to conditions: coating concentration of 1 μg/ml, OD450. As to the method:
(§1) Plates were coated with SCACD3, CD3-PEG and JY108 respectively at 100 μl/well. […] After coating, each plate was washed for 3 times with PBST (200 μL/well). Next, each plate was blocked with 5% BSA in PBST at 37° C. for 2 hours. After blocking, each plate was washed with PBST for 3 times followed by the addition of either […], 0.1 μg, and 0 μg human CD19-Fc protein (Acrobiosystems, Code: CD9-H5259) in 0.5% BSA in PBST (10 μg/mL, 1 μg/mL, 0 μg/mL, 100 μL/well) or […] human CD3E&CD3D (Acrobiosytems, Code: CDD-H52W0) in 0.5% BSA in PBST (10 μg/mL, 100 μl/well) to corresponding wells. The plates were incubated at 37° C. for 1 hour followed by washing with PBST for 3 times. 100 μL of […] HRP conjugated anti-human IgG (GenScript, Code: A01854) was then added to each well. The plates were incubated at 37° C. for 1.5 hours. After incubation, each plate was washed with PBST for 3 times followed by the addition of 100 μL of TMB to each well. The development reaction for each plate was set in dark for 15 minutes and terminated with 100 μL/per well of stop solution.

Data set [4] concerns the target T2, human CD19 (Homo sapiens, UniProt P15391).
T2 sequence (P15391 20-291 limits assumed): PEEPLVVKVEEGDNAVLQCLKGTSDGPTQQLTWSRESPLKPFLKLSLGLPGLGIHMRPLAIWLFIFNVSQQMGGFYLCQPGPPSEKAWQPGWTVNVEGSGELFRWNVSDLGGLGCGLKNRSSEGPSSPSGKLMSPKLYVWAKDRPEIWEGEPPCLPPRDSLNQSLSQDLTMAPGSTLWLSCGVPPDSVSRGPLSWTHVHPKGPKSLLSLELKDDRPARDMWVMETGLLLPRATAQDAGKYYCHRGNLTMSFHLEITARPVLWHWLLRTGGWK
Nature of the data set: BiaCore assay, binding to human CD19. As to conditions: ligand human CD19 captured on chip. An excerpt:
(§2) The anti-CD3 scFv (SCACD3) has the amino acid sequence set forth in SEQ ID NO: 2. The anti-CD19 scFv (SCACD19) has the amino acid sequence set forth in SEQ ID NO: 1. Methods for preparation of theses samples were described in detail in WO 2018/075308 A1.
(§3) General procedure: Diluted human CD19 (AcroBiosystems, Cat. CD19-H5259) or human CD3E&3D (AcroBiosystems, Cat. CDD-H52W0) were captured on the sensor chip through Fc capture method. The capture time for human CD3E & CD3D and for human CD19 was set for 12 s and 12-30 s respectively and capture flow rate was […]. Each sample tested was serially diluted into 6-8 concentrations. The association time and dissociation time for the analytes were set for 180 s and 420 s respectively, and the flow rate for the analyte was set at […]. For surface regeneration, 10 mM Glycine-HCl buffer was used; the contact time was set for 30 s and the flow rate was […]. Flow cell 1 and blank injection of buffer in each cycle were used as double references for Response Units subtraction. All data were processed using BiaCore T2000 Evaluation software (version 3.1).

Data set [5] concerns the target T3, human CD3E&3D (Homo sapiens, UniProt P07766).
T3 construct: purchased AcroBiosystems CDD-H52W0
Nature of the data set: BiaCore assay, binding to human CD3E&3D. As to conditions: ligand human CD3E&3D captured on chip.
Excerpt: as §2, §3

In data set [6] the target is T2, human CD19. Put plainly: ELISA assay, binding to human CD19 protein. As to conditions: OD450. As to the method:
as §1

For data set [7] the following is noted: in vivo; cited from earlier work.
For data set [8] the following is noted: human, in vivo; cited from earlier work.

T3 sequence (P07766 23-126 limits assumed): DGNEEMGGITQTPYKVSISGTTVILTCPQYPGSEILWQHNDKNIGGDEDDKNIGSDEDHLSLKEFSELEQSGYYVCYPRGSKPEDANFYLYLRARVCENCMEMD
T3 sequence (P04234 22-105 partner limits assumed): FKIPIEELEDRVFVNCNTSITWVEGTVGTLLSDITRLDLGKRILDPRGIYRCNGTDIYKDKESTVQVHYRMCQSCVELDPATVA
T1 sequence (P07766 23-126 limits assumed): as the sequence (P07766 23-126 limits assumed) above
T1 sequence (P04234 22-105 partner limits assumed): as the sequence (P04234 22-105 partner limits assumed) above

As for rituximab: anti-CD20 antibody, in data set [1], the “MS patients experiencing relapse of the disease” value was roughly 20%.
As to “Blinatumomab: T-BsAb or BiTE (Bispecific T cell Engager) approved for ALL, redirecting T cells to CD19+ B cells; control drug”, the toxicity in patients result in data set [2] is “frequent cytokine release syndrome (CRS) and central nerve system (CNS) toxicity”. In data set [3], the “ranking of affinity to human CD3E&CD3D” value is listed as “SCACD3>blinatumomab>JY108>SCACD3-PEG”. The Kd in data set [4] came to 207 pM; in data set [4] (listed as blinatumomab), 207 pM; in data set [5] it was 1140 pM. The ka in data set [4] came out at 1.92e+06 M⁻¹ s⁻¹; in data set [5], 1.08e+06 M⁻¹ s⁻¹. The kd in data set [4] was determined as 0.000397 s⁻¹; in data set [5] it was 0.00123 s⁻¹. In addition, in data set [6], the “ranking of binding to human CD19” value is recorded as “SCACD19>blinatumomab>JY108>SCACD19-linker”. In addition, in data set [7], the half-life result was “about 2 h”. For the same substance, the circulation half-life in data set [8] is 1.25 h.
